The values that follow come from article PMC2822398.

This series deals with variola virus topoisomerase IB (vTopIB) (variola virus (smallpox), UniProt P32989 1-314). Kind of series: X-ray crystallography.
Chain of variola virus topoisomerase IB (vTopIB) (P32989 whole entry): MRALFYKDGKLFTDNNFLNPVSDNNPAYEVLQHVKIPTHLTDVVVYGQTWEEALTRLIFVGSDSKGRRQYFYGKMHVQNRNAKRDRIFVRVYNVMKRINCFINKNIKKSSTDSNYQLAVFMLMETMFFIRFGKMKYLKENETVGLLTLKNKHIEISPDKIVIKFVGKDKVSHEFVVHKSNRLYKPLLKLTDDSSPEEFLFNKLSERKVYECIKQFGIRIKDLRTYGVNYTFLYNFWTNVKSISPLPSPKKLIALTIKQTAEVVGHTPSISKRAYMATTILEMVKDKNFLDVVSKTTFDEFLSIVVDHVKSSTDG

B1: nicked vTopIB-binding duplex (three oligonucleotides) (dsDNA)
DNA 1: GTGTCGCCCTT
DNA 2: ATTCC
DNA 3: CGGAATAAGGGCGACA
modifications: nick at the scissile phosphate (phosphodiester missing), filled by vanadate in the crystal
In the case of B1, the binding result is “binds”.
